# Patent publication US20210322547A1
# What was measured:
# [1] = molecular target: Recombinant human GM-CSF (expression source not stated) (human) (UniProt P04141); assay: competition ELISA; plate coated with 50 ng/well recombinant GM-CSF; unlabeled antibody titrated together with 50 nM biotinylated Ab2; competition for 18 hrs; neutravidin-HRP detection, A450
# [2] = molecular target: Recombinant human GM-CSF (expression source not stated) (human) (UniProt P04141); assay: competition ELISA; plate coated with 50 ng/well recombinant GM-CSF; unlabeled antibody titrated together with 50 nM biotinylated Ab2; competition for 1 hr; neutravidin-HRP detection, A450
# Chain of UniProt P04141 (P04141 18-144 limits assumed): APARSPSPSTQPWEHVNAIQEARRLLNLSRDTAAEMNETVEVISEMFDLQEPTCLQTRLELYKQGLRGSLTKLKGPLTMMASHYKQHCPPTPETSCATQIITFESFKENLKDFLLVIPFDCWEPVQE
substance,measurement,setting,value
"Ab2, chimeric IgG1k antibody having variable regions from the mouse antibody LMM102",IC50,[1],94 nM
same,IC50,[2],122 nM
